# Assay results from patent US20070117112.
# Like-named read-outs stand apart in the source and are kept apart here.
# Experiments:
# [1] = target: T7 RNA polymerase Y639L/H784A/K378R (LAR) (Bacteriophage T7) (UniProt P00573); conditions: 2'-OMe NTPs
# [2] = target: T7 RNA polymerase P266L/Y639L/H784A/K378R (LLAR) (Bacteriophage T7) (UniProt P00573); conditions: 2'-OMe NTP transcription; at 2.6 ug/ml enzyme (130 at 11, 13 at 0.66, 8.3 at 0.16 ug/ml); template made with 5' poly-A extended primer
# [3] = target: T7 RNA polymerase Y639L/H784A/K378R (LAR) (Bacteriophage T7) (UniProt P00573); conditions: 2'-OMe NTP transcription; 2.1 ug/ml enzyme, 8 mM MgCl2, 2.5 mM MnCl2, 37 C; template made with 5' poly-A extended primer
# [4] = target: T7 RNA polymerase Y639L/H784A/K378R (LAR) (Bacteriophage T7) (UniProt P00573); conditions: 15 mL 2'-OMe NTP transcription, 8 mM MgCl2, 2.5 mM MnCl2
sequence,measurement,setting,value
TAATACGACTCACTATAGGAGCCTTCCTCCGGANNNNNNNNNNNNNNNNNNNNNNNNNNNNNNNNNNNNNNNNTCCGGTTTCCCGAGCTT (double strand) [Template 6],activity (% relative yield),"[1]; listed as Pool 2, relative to Pool 4",88
TAATACGACTCACTATAGGGGAGTACAATAACCAGACATNNNNNNNNNNNNNNNNNNNNNNNNNNNNNNGGATCGTTACGACTAGCATCGATG (double strand) [Template 8],activity (% relative yield),[1]; listed as Pool 4 (reference),100
TAATACGACTCACTATAGGGAGACAAGAATAAACGCTCAANNNNNNNNNNNNNNNNNNNNNNNNNNNNNNNNNNNNNNNNTTCGACAGGAGGCTCACAACAGGC (double strand) [Template 7],activity (% relative yield),"[1]; listed as Pool 3, relative to Pool 4",130
TAATACGACTCACTATAGGGGAGTACAATAACGTTCTCGNNNNNNNNNNNNNNNNNNNNNNNNNNNNNNGGATCGTTACGACTAGCATCGATG (double strand) [ARC2118 template library],activity (% normalized yield),[2],65
same,activity (% normalized yield),[3],100
TAATACGACTCACTATAGGGAGAATTCCGACCAGAAGCTTNNNNNNNNNNNNNNNNNNNNNNNNNNNNNNNNNNNNNNNNCATATGTGCGTCTACATGGATCCTCA (double strand) [Template 1],activity (nmol transcript),[4],18.7
TAATACGACTCACTATAGGGAGAGACAAGCTTGGGTCNNNNNNNNNNNNNNNNNNNNNNNNNNNNNNNNNNNNNNNNAGAAGAGAAAGAGAAGTTAATTAAGGATCCTCAG (double strand) [Template 3],activity (nmol transcript),[4],20.2
TAATACGACTCACTATAGGGAGAATTCCGACCACAAGNNNNNNNNNNNNNNNNNNNNNNNNNNNNNNNNNNNNNNNNCATATGTGCGTCTACATGGATCCTCA (double strand) [Template 4],activity (nmol transcript),[4],27.8
TAATACGACTCACTATAGGGAGAGCGGAAGCCGTGCTGGGGCCNNNNNNNNNNNNNNNNNNNNNNNNNNNNNNNNNNNNNNNNCATAACCCAGAGGTCGATGGATC (double strand) [Template 2],activity (nmol transcript),[4],17.4
TAATACGACTCACTATAGGGCCTTGTAGCGTGCATTCTTGNNNNNNNNNNNNNNNNNNNNNNNNNNNNNNCTAACATACTCCGAATCTGTCGAA (double strand) [Template 5],activity (% relative yield),"[1]; listed as Pool 1, relative to Pool 4",80
